# The nanobody polyreactivity screen of Harvey et al. (2022)
# Experiment: yeast display, Sf9 membrane polyspecificity reagent, FACS + sequencing; frameworks hold sequencing errors
# How it was run: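 Galactose-induced (36–48 hours) yeast carrying a synthetic nanobody display library were exposed to 10% biotinylated, detergent-solubilized Sf9 membrane reagent at 4 °C for 1 hour. FACS followed streptavidin microbead enrichment, using low and high (top ~1%) gates for expression (anti-HA) and reagent binding (streptavidin). Colony PCR, MiSeq 2 × 250 sequencing and CDR-length filtering followed. Labels for polyreactivity reflect the gate of origin.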
row,Sequence,polyreactivity (PSR sort gate)
1,QVQLVESGVGLVQAGGSLRLSCAASGRIFGSYTMGWYRQAPGKERELVAGISRRGGSTYYADSVKGRFTISRDNAKNTVYLQMNSLKPEDTAVYYCAVVSSHYKGPGRNGYDYWGQGTQVTVSS,high polyreactivity
2,QVQLVESGVGLVQAGGSLRLSCAASGRTFDYNAMGWYIQAPGKERELVAAITSSGGSTYYADSVKGRFTISRDNAKNTVYLQMNSLKPEDTAVYYCDTDGQSPYYIYYWGQGTQVTVSS,low polyreactivity
3,QVQLVESGVGLVQAGGSLRLSCAASGRTFRPYALGWYRQAPGNERELVAAIDSGGSTYADSVKGRFTISRDNAKTTVYLQMNSLKPEDTAVYYSAAVTQTAWLWYGYWGQGTQVTVSS,low polyreactivity
4,QVQLVESGVGLVQAGGSLRLSCAASGRTLSKNAMGWYRQAPWKERELVATMSSVGRTNYADSVKGRFTISRDNAKNTVYLQMNSLKPEDTAVYYCAARRFRGSYYWGQGTQVTVSS,high polyreactivity
5,QVQLVESGVGLVQAGGSLRLSCAASGSIFGPYAMGWSRQAPGKERELVAAISLGGGSTYYAASVKGRFTISRDNAKNTVYLQMNSVKPEDTAVYYCNAEFSSGPYGYNGFDYWGQGTQVTVSS,low polyreactivity
6,QVQLVESGVGLVQAGGSLRLSCAASGSIFPGYAMGWYRQAPGKEMELVAGITWSDARTYYADSVKVRFTISRDNAKNTVYLQMNSLKPEDTAVYYCAADYYYYERDYWGQGTQVTVSS,low polyreactivity
7,QVQLVESGVGLVQAGGSLRLSCAASGSIFPHYAMGWYRQAPGKERELVAAISSGTSTNYADSVKGRFTISRDNAKNTVYLQMNSLKPEDTAVYFCAADYYSGYDSVDGDYNYWGQGTQVTVSS,low polyreactivity
8,QVQLVESGVGLVQAGGSLRLSCAASGSIFRYYAMGWYRQAPGKEREFVADITWSGTSTYYADSVKGRFTISRDNAKNTVYFQMNSLKPEDTAVFYCNKYRSYWSGPSYWREYDYWGQGTQVTVSS,high polyreactivity
9,QVQLVESGVGLVQAGGSLRLSCAASGSILSGYAMGWYRQAPGKERELVAAINDGGGTNYADSVKGRFTISRDNAKNTVYLQMNSLKPEDTAVYYCNKVYYFQRRLTPVYLMDYWGQGTQVTVSS,low polyreactivity
10,QVQLVESGVGLVQAGGSLRLSCAASGSISDVYAMGVYRQAPGKERDLVAAITSGASTYYADSVKGRFTISLDNAKNTVYLQINSLKPEDTAVYYCSAGYSDWYYAAYNSWGQGTQVTVST,low polyreactivity
11,QVQLVESGVGLVQAGGSLRLSCAASGSNSGLYAMGWYRQAPGKERELVAAIRWSGGSTRYADSVKGRFTISRDNAKNTVYLLMNSLKPEDTAVYYCAADFYSKFVRFGYWGQGTQVTVSS,high polyreactivity
12,QVQLVESGVGLVQAGGSLRLSCAASGSTFAKYAMGWYRQAPGKERELVASIRLSGGSTYYADSVKGRFTISRDNAKNTVYLQMNSLKPEDTAVYYCAADVIVFYYAPNYWGDIEYGYWGQGTQVTVSS,low polyreactivity
13,QVQLVESGVGLVQAGGSLRLSCAASGSTFDDYAMGWYRQAPGKERELVAAINKTGGSTNYADSVKGRFTISRDNAKNTVYLQMNSLKPEDNAVYYCAADGSNYSASVAAFPYRVDYWGQGTQVTVSS,low polyreactivity
14,QVQLVESGVGLVQAGGSLRLSCAASGSTFGGYAMGWYRQAPGKDTEFVAAISYDGDSTYYADSVKGRFTISRDNAKNTVYLQMNSLKPEDTAVYYCAADISYHYGVWYFYYWGQGTQVTVSS,low polyreactivity
15,QVQLVESGVGLVQAGGSLRLSCAASGSTFKGYTMGWYRQAPGKERELVAAITYSGGRTYYADSVKGRFTISRDNAKNTVYLQMNSLKPEDTAVYYCAARQQWVKVEYDYWGQGTQVTVSS,high polyreactivity
16,QVQLVESGVGLVQAGGSLRLSCAASGSTFRYYGMGWYRQAPGKEMELVAAISSSGGSTYYADSLKGRFTISRDNAKNTVSLQMNSLKPEDTAVYYCAAGSRFVSSRLYYWGQGTQVTVSS,high polyreactivity

row,Sequence,polyreactivity (PSR sort gate)
1,QVQLVESGVGLVQAGGSLRLSCAASGYTFAYNAMGWYRPAPGKERELVAAITSRAGSTHYADSVKGRFTISRDNAKNTVYLQMNSLKPEDTAVYYCAAKRYNRLRSYRYSDREDYWGQGTQVTVSS,high polyreactivity
2,QVQLVESGVGLVQAGGSLRLSCAATGRIFDLYAMGWYRQAPGKEREFVAAISGRGGSTYYADSVKGRFTISRDNAKNTVYLEMNSLKPEDTAVYYCNAKRSLYGRYGYWGQGSQVTVSS,high polyreactivity
3,QVQLVESGVGLVQAGGSLRLSCAPSGRIFIYYAMGWYRQAPGKERELVATITASGDSTYYADSVKGRFTISRDNAKNTVYFQMNSLKPEDTAVYYCAADDGDYYEVDYWGQGTQVTVSS,low polyreactivity
4,QVQLVESGVGLVQAGGSLRLSCASSGILVYNAMAWYRQAPGKERELVAAISARGGRTYYADSVKGRFTISRDNAKNTVYLQMNSLKPEDTAVYYCATLETTGVNYWGQGTQVTVSS,high polyreactivity
5,QVQLVESGVGLVQAGGSLRLSCASSGLTFNYYAIGWYRQAPGKERELVAAISSDGRTDYADSVKGRFTISRDNAKNTVYLQMNSLKPEDTAFYSCAVEYQSPDDYWGQGTQVTVSS,low polyreactivity
6,QVQLVESGVGLVQAGGSLRLSCASSGSIFAYNTMGWYRQAPGKEREFVAAISWLGGSTYYADSVKGRFTISRDNAKNTVYLQMNSLKPEDTAVYYCNARYRTTFYTRRYDYWGQGTQVTVSS,low polyreactivity
7,QVQLVESGVGLVQAGGSLRLSCASSGSTCGYYTMGWYRQAPGKERELVAAITKTGGGTYYADSVKGRFTISRDNAKNTDYLQMNSLKPEDTAVYYCAAYSRFTSDYWGQGTQVTVSS,high polyreactivity
8,QVQLVESGVGLVQAGGSLSLSCAASGSTFTRYAMGWYRQAPGKERELVASISRSGNTYYADSVKGRFTISRDNAKNTVYLQMNSLKPEDSAVYYCAAKRKSYYSYNFDYWGQGTQVTVSS,high polyreactivity
9,QVQLVESGVGLVQAGGSLSLSCAPSGSTFTSYAMGWYRQAPGKEMELVAAITSRRGTYYADSVKGRFTISRDNAKNTVYLEMTSLKPEVTAVYYCAARAPYKKYPYVKWYDYWGQGTQVTVSS,high polyreactivity
10,QVQLVESGVGLVQAGGTLRLSGAASGLIFEYYAMGWYRQPPGKETELVAAITTSGGSTYYADSVKGRFTISRDIAKNTVYLQMNSLKPEDTAVYDCAAVGVRSRYYGYDYWGQGTLVTVSS,high polyreactivity
11,QVQLVESGVGLVQAGRNLRLSCAASGIIFYLNAMGWYRQAPGKERELVAAISNGTSTNYADSVKGRFTISRDNAKNTVYLQMNSLKPEDTAVYYCAADDLRYNSRSSNYRGDSWGQGTQVTVSS,low polyreactivity
12,QVQLVESGVGLVQARGSLRLSCAASGYIFTIYAMGWYRHAPGKERELVAAITWSGATTYYADSVKGRFTISRDNAKNTVYLQMNILKPEDTAVYYCNADYWHYYEDYDSWGQGTQVTVSS,low polyreactivity
13,QVQLVESGVGLVQARGSLRLSCASSGSIFLVYAMGWYRQAPGKESELVAAISRSGRTYADSVKGRFTISRDNAKNTVYLQMNSLKPVDTAVYYCAAVTKRRFEGDYWGQGTQVTVSS,high polyreactivity
14,QVQLVESGVGLVQARGSLRLSSAASGITLPKYAMGWYRQEHGKERELVAAISRRGGITYYADSVKGRFTISRDNAKNTVYVQMNSLKPEDTAVYYCAADRTDTRGFDYWGQGTQVTVSS,high polyreactivity
15,QVQLVESGVRLVQSGGSLRLSCASSGFTIWRYAMGWYRQAPGKERELVAAISRSGTRTYYADSVKGRFTISRDNAKNTVYLQMNSLKPEDTAVYYCAADGLSLAYEHDYWGQGTQVTVSS,high polyreactivity
16,QVQLVESIGGLVQAGGSLRLSCAASGSIFQPYAMRWYRQAPGKERELVAAITTSGGRTYYADSVKGRFTMSRDNAKNTVYLQMNSLKPEDTAVYYCAADWGIGDYDYWGQGTQVTVSS,high polyreactivity
